3 molecules from patent US7524646B2 (priority 2001, dated 2009) can be followed below.

Entries after “also recorded” stand apart in the source; their conditions may differ.

In data set [1] the test system is strains bearing thyA:Val146 alleles. The data set is described as follows: Cysteine suppression of thyA:Val146 alleles on gradient plates. The format is cell-based, E. coli. The settings on record: gradient starting at 100 mM L-cysteine, no thymidine. How it is done: […] Ile-Val (0.3 mM) was added in one plate as a control. The dipeptide Ile-Val was purchased from Bachem A G (Bubendorf, Switzerland). Plates were incubated for 2 days at 30° C.
We took advantage of the thyA conditional selection screen in E. coli, based on the absolute requirement for an active thymidylate synthase when thymidine is not provided as a growth factor (13). This same screen was used previously to assess the potency of suppressor Cys-tRNAs in codon misreading (14) and to enforce phenotypic suppression by the non-canonical azaleucine (15). An entire set of plasmid-borne thyA alleles with all 64 different codons at position 146 was constructed for altering the catalytic site occupied by an essential Cys (16, 17). Each allele was tested for its ability to restore growth to an E. coli strain (lacking the chromosomal copy of thyA) on mineral glucose medium in the absence of thymidine (14, 15). Three of the 64 plasmid-borne thyA alleles restored growth. These had one of three codons-UGU, UGC, or UGA. The growth responses of the UGU and UGC alleles were expected, as these code for cysteine.
Shallow growth was reproducibly observed on L-cysteine gradient plates (18) for the missense alleles having any of the eight codons AUN and GUN alone. […]

The test system of data set [2] is five different valS strains (editing mutants). The format is cell-based, E. coli. The settings on record: at 2 mM. How it is done:
(§1) FIG. 1C: Photographs showing the results of growth of a strain carrying the valS:T222P allele in the presence of L-threonine or Abu. Minimal medium plates supplemented with thymidine (0.3 mM) were pretreated with amino acid solutions by streaking either with Thr (50 μl (0.2 M)) or Abu (50 μl (0.1 M)) vertically along the diameter of the plate to create an amino acid gradient. Mutant (β5456) and wild-type (β5419 (thyA::erm+ ΔnrdD::kan+ pTS13 (bla+ thyA: 146GUA)) strains were then streaked horizontally across the plates and incubated for 2 days at 37° C.
(§2) ValRS is known to misactivate Thr and generate Thr-tRNA^Val, which normally is hydrolyzed by the ValRS editing activity (9). If the ValRS mutants in Table 1 are impared for editing, then strains bearing each of these mutations should misincoporate Thr into protein, and L-threonine would then be toxic in these strains. The growth of the five different valS strains was therefore tested in the presence of L-threonine.

In another data set the test system is parent strain β5419. Kind of data set: Growth of parent strain in the presence of L-threonine. The class given is cell-based, E. coli. The settings on record: all concentrations. How it is done:
as §1, §2

Another data set deals with [^3H]Thr-tRNAval. The data set is described as follows: Deacylation of mischarged Thr-tRNAVal by ValRS enzymes. The class given is biochemical, E. coli. The settings on record: 2 nM enzyme, room temperature. How it is done: FIG. 5B: Histogram representation of the inhibition zone diameters of DvalS::kanR strains harboring each of the ValRS editing mutants on plasmid in response to exogenous Abu. Effects range from mild to severe. Histogram representation of the percentage of mischarged Thr-tRNAVal remaining after incubation with 2 nM enzyme for 15 minutes at room temperature. Both show a distinct range in the severity of editing defects caused by these point mutations. Taken together this illustrates a correlation between the ability of the mutant enzyme to deacylate mischarged amino acids from tRNAVal in vitro and the degree of in vivo toxicity.
(§3) Misacylation of Thr onto tRNAval was performed in the same conditions except 5.86 μM [^3H]Thr was substituted forVal in the reaction. To test deacylation rates for these enzymes it was necessary to generate [^3H]Thr-tRNAval. […] Enzyme was incubated with 2.5 μM tRNAval and 45 uM [^3H]Thr, incubated at 37 C. for 45 minutes, extracted twice in phenol:chloroform, and ethanol precipitated. Pellet was dissolved in 100 μL sterile H2O and scintillation counting was used to determine the success of the reaction. Deacylation reactions, done in triplicate for each enzyme, were performed in 155 mM Tris-HCl (pH 7.5), 100 μg/ml BSA, 10 mM MgCl2. At room temperature 2 nM enzyme was combined with [^3H]Thr-tRNAval, at 3, 6, 9, 16, and 30 minutes aliquots (9 μL) of the reaction mixture were precipitated with tricholoracetic acid, and the amount of misaminoacylated [^3H]Thr-tRNAval remaining in the sample was determined by scintillation counting. A no enzyme control reaction was included to provide reference point.

Data set [3] deals with tRNA^Val. The data set is described as follows: Aminoacylation of tRNAVal with Val. The class given is biochemical, E. coli. The settings on record: pH 7.5, 37° C. How it is done:
(§4) FIG. 2B: A graph showing misaminoacylation of tRNA^Val with Thr by the T222P mutant enzyme at pH 7.5 and 37° C. The wild-type (WT) and mutant alleles were cloned under the control of a PBAD promoter (30). The enzymes were partially purified from a laboratory strain lacking the chromosomal copy of the valS gene (ΔvalS::kan+). The purification and aminoacylation procedures were adapted from Hendrickson et al. (31). (Main panel) Misaminoacylation of tRNA^Val with Thr by the two enzymes. (Inset) Aminoacylation of tRNA^Val with Val by the two enzymes.
(§5) Aminoaclyation Assay, Misacylation, and Deacylation: Aminoacylation assays were performed at 37 C. in a 100 uL volume containing buffer (20 mM HEPES, 0.1 mM EDTA disodium salt, 0.15M NH4Cl, 10 ug/mL BSA pH 7.5), […] MgCl2, 0.7 μM [^3H]Val, 20 μM cold Val, 2 μM tRNAval (Sigma) and 20 nM ValRS enzyme (adapted from Hendrickson et al. 2000). Aliquots (10 μL) of the reaction mixture were precipitated with tricholoracetic acid, and the level of aminoacylation of the tRNA was determined by scintillation counting.

The test system of data set [4] is tRNA^Val. The data set is described as follows: Misacylation of tRNAVal with Thr. The class given is biochemical, E. coli. The settings on record: pH 7.5, 37° C. How it is done:
as §4, §5, §3

Data set [5] deals with tRNA^Val. The data set is described as follows: Misacylation of tRNAVal with cysteine. The class given is biochemical, E. coli. An excerpt: The T222P mutant enzyme was, therefore, expressed and partially purified so that it could be directly assayed for the ability to misacylate tRNA^Val.

Take `N[C@@H](CS)C(=O)O` [L-cysteine]: the “suppression of thyA:Val146 alleles” value in data set [1] was “weak”.
Regarding `C[C@@H](O)[C@H](N)C(=O)O` [L-threonine], the “sensitivity of growth to exogenous L-threonine” value was “high sensitivity” in data set [2] and “insensitive” in the data set with parent strain β5419.

B1: T222P (protein, UniProt P07118 1-951, looked up, variant T222P)
Valine--tRNA ligase: MEKTYNPQDIEQPLYEHWEKQGYFKPNGDESQESFCIMIPPPNVTGSLHMGHAFQQTIMDTMIRYQRMQGKNTLWQVGTDHAGIATQMVVERKIAAEEGKTRHDYGREAFIDKIWEWKAESGGTITRQMRRLGNSVDWERERFTMDEGLSNAVKEVFVRLYKEDLIYRGKRLVNWDPKLRTAISDLEVENRESKGSMWHIRYPLADGAKTADGKDYLVVATPRPETLLGDTGVAVNPEDPRYKDLIGKYVILPLVNRRIPIVGDEHADMEKGTGCVKITPAHDFNDYEVGKRHALPMINILTFDGDIRESAQVFDTKGNESDVYSSEIPAEFQKLERFAARKAVVAAVDALGLLEEIKPHDLTVPYGDRGGVVIEPMLTDQWYVRADVLAKPAVEAVENGDIQFVPKQYENMYFSWMRDIQDWCISRQLWWGHRIPAWYDEAGNVYVGRNEDEVRKENNLGADVVLRQDEDVLDTWFSSALWTFSTLGWPENTDALRQFHPTSVMVSGFDIIFFWIARMIMMTMHFIKDENGKPQVPFHTVYMTGLIRDDEGQKMSKSKGNVIDPLDMVDGISLPELLEKRTGNMMQPQLADKIRKRTEKQFPNGIEPHGTDALRFTLAALASTGRDINWDMKRLEGYRNFCNKLWNASRFVLMNTEGQDCGFNGGEMTLSLADRWILAEFNQTIKAYREALDSFRFDIAAGILYEFTWNQFCDWYLELTKPVMNGGTEAELRGTRHTLVTVLEGLLRLAHPIIPFITETIWQRVKVLCGITADTIMLQPFPQYDASQVDEAALADTEWLKQAIVAVRNIRAEMNIAPGKPLELLLRGCSADAERRVNENRGFLQTLARLESITVLPADDKGPVSVTKIIDGAELLIPMAGLINKEDELARLAKEVAKIEGEISRIENKLANEGFVARAPEAVIAKEREKLEGYAEAKAKLIEQQAVIAAL
On to B1, for which the “deacylation of Thr-tRNA^Val in vitro” value in data set [^3H]Thr-tRNAval was “most severe defects”. In addition, the “activity for charging tRNA^Val with valine” value with tRNA^Val [3] is “same activity as the wild-type enzyme”. Further, the “misacylation of tRNA^Val with Thr” value in the data set with tRNA^Val [4] is “high levels of mischarged Thr-tRNA^Val; also recorded: misacylated tRNA^Val with Thr”. Also, the “misacylation of tRNA^Val with cysteine” value in the data set on tRNA^Val [5] is on record as “catalyzed only by the mutant enzyme”.
